This note sets out measurements from patent US20180155451A1 (published 2018).

The target of assay [1] is T1, FcγRIIa H (human, UniProt P12318 34-217).
T1 construct: extracellular domain; also called FcγRIIa type H; 2aH
T1 sequence (looked up): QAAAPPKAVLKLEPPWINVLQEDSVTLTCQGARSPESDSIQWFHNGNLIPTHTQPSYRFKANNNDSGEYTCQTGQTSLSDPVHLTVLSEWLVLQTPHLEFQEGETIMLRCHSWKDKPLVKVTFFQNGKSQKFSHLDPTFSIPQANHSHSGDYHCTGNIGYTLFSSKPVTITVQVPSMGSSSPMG
Put plainly: SPR; He/Con_2aH divided by He/Con_2b (FcγRIIb). On the procedure:
The heterodimerized antibodies He Abs in which one of the H chains was introduced with an alteration were assayed for their binding activities to each activating FcγR and inhibitory FcγR according to the method described in Example 4. […] The activating FcγRs in FIGS. 26, 27, 28, and 29 are FcγRIa, FcγRIIa (R), FcγRIIa (H), and FcγRIIIa, respectively.
Analysis of interaction between objective antibody and the FcγR was carried out using Biacore T100 (GE Healthcare). HBS-EP+ (GE Healthcare) was used as the running buffer, and the measurement temperature was set to 25° C. Chips produced by immobilizing the antigen peptide by the amine coupling method to a Series S Sencor Chip CM5 (GE Healthcare), or alternatively, chips produced by allowing preliminarily biotinylated antigen peptides to interact with and immobilize onto a Series S Sensor Chip SA (certified) (GE Healthcare) were used. Antibodies of interest were captured onto an antigen peptide-immobilized chip, and allowed to interact to each FcγR diluted with running buffer. To regenerate and repeatedly use the chip, the antibodies captured on the chip were washed off by reacting 10 mM glycine-HCl, pH 1.5.

In another assay the target is T2, FcγRIIb (human, UniProt P31994 43-217).
T2 construct: extracellular domain; also called 2b
T2 sequence (looked up): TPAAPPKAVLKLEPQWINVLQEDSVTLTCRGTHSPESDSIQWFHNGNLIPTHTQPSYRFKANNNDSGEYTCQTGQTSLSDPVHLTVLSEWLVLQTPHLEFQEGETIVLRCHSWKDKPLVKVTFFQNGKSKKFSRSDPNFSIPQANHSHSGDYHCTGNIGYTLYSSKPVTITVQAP
The assay can be described thus: SPR (Biacore), relative binding vs GpH7-A5/GpH7-B3/GpL16-k0. (Surface plasmon resonance follows binding to a sensor surface in real time, without labels.)

Assay [2] addresses T1, FcγRIIa H. The description is as above.
Assay [3] addresses T3, FcγRIIb extracellular domain with C-terminal His tag (human, UniProt P31994 43-217).
T3 construct: extracellular domain; Expressed in FreeStyle293 cells; used as analyte in Biacore; also called FcgRIIb; 2b; not shown: C-terminal His tag
T3 sequence (looked up): T2 sequence (looked up)
The assay can be described thus: SPR (Biacore), antibody captured on antigen-peptide chip, FcgRIIb as analyte; binding relative to GpH7-B3/GpL16-k0 (HoCon Ab) = 100.

B1: GpH7-A5/GpH7-B3 variant S267_09D/GpL16-k0 (antibody, human IgG1, kappa)
heavy 1: not shown
heavy 2: not shown
light: DIVMTQSPLSLPVTPGEPASISCQASESLVHSNRNTYLHWYLQKPGQSPQLLIYKVSNRFSGVPDRFSGSGSGTDFTLKISRVEAEDVGVYYCSQNTHVPPTFGQGTKVEIERTVAAPSVFIFPPSDEQLKSGTASVVCLLNNFYPREAKVQWKVDNALQSGNSQESVTEQDSKDSTYSLSSTLTLSKADYEKHKVYACEVTHQGLSSPVTKSFNRGEC
notes: heterodimerized IgG1, mutation in one H chain only; also called He Ab
In the case of B1, the “He_2aH/2b (IIaH/IIb)” value with FcγRIIa H [1] is 0.34 ratio. Also, the He/Con_2b in the assay with FcγRIIb is 310 % of control He Ab (=100). Further, the He/Con_2aH with FcγRIIa H [2] is 105 % of control He Ab (=100).

B2: GpH7-A5/GpH7-B3 variant S267_06M/GpL16-k0 (antibody, human IgG1, kappa)
heavy 1: not shown
heavy 2: not shown
light: B1 light
notes: as for B1
With B2, the “He_2aH/2b (IIaH/IIb)” value in the assay with FcγRIIa H [1] turned out to be 0.16 ratio. In the assay with FcγRIIb, the He/Con_2b is 210 % of control He Ab (=100). Moreover, the He/Con_2aH in the assay with FcγRIIa H [2] is 34.3 % of control He Ab (=100).

B3: GpH7-A5/GpH7-B3 variant V266_19Q/GpL16-k0 (antibody, human IgG1, kappa)
heavy 1: not shown
heavy 2: not shown
light: B1 light
notes: as for B1
As for B3, the “He_2aH/2b (IIaH/IIb)” value with FcγRIIa H [1] is 0.52 ratio. For the same molecule, in the assay with FcγRIIb, the He/Con_2b was 89.2 % of control He Ab (=100). Besides, in the assay with FcγRIIa H [2], the He/Con_2aH was 46.4 % of control He Ab (=100).

B4: GpH7-B3 variant K334_15Y/GpL16-k0 (Ho Ab) (antibody, human IgG1, kappa)
heavy: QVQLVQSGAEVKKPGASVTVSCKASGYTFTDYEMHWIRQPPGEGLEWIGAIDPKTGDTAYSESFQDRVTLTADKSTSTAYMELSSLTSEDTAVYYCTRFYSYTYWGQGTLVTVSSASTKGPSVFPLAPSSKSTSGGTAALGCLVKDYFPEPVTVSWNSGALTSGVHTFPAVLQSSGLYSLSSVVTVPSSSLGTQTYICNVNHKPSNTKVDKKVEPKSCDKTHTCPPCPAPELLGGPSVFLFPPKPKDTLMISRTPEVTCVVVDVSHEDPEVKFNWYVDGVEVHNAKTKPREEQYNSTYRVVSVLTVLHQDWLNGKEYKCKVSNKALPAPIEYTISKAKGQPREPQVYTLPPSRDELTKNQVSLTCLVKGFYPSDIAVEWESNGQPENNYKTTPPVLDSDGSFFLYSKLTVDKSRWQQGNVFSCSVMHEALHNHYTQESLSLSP
light: B1 light
notes: Substitution in both H chains; position in EU numbering; also called K334Y homodimerized antibody
As for B4, the Ho/Con_2b in assay [3] was 126 % of control.

B5: GpH7-B3 variant K334_18N/GpL16-k0 (Ho Ab) (antibody, human IgG1, kappa)
heavy: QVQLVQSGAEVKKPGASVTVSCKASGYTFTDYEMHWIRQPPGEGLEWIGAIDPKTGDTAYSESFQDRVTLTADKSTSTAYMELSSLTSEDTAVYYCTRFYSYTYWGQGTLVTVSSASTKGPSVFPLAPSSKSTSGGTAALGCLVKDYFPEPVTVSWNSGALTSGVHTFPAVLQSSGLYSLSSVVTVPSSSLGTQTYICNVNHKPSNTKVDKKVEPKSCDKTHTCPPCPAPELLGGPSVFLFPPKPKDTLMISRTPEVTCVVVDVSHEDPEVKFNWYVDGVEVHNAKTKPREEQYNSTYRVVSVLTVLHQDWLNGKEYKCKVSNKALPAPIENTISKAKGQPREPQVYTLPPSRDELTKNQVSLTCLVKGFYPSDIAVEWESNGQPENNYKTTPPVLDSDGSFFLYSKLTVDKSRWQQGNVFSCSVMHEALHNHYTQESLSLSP
light: B1 light
notes: Substitution in both H chains; position in EU numbering; also called K334N homodimerized antibody
On to B5, for which the Ho/Con_2b in assay [3] is 128 % of control.

B6: GpH7-A5/GpH7-B3 variant P271_14T/GpL16-k0 (antibody, human IgG1, kappa)
heavy 1: not shown
heavy 2: not shown
light: B1 light
notes: as for B1
As for B6, the “He_2aH/2b (IIaH/IIb)” value in the assay with FcγRIIa H [1] was 0.64 ratio. For the same molecule, the He/Con_2b with FcγRIIb is 95.4 % of control He Ab (=100). Also, the He/Con_2aH in the assay with FcγRIIa H [2] is 60.9 % of control He Ab (=100).

B7: GpH7-A5/GpH7-B3 variant P271_10E/GpL16-k0 (antibody, human IgG1, kappa)
heavy 1: not shown
heavy 2: not shown
light: B1 light
notes: as for B1
With B7, the “He_2aH/2b (IIaH/IIb)” value in the assay with FcγRIIa H [1] came out at 0.58 ratio. Further, in the assay with FcγRIIb, the He/Con_2b is 109 % of control He Ab (=100). Further, in the assay with FcγRIIa H [2], the He/Con_2aH is 63.1 % of control He Ab (=100).

B8: GpH7-A5/GpH7-B3 variant S267_19Q/GpL16-k0 (antibody, human IgG1, kappa)
heavy 1: not shown
heavy 2: not shown
light: B1 light
notes: as for B1
For B8, in the assay with FcγRIIa H [1], the “He_2aH/2b (IIaH/IIb)” value came out at 0.28 ratio. For the same molecule, the He/Con_2b with FcγRIIb is 218 % of control He Ab (=100). Also, the He/Con_2aH with FcγRIIa H [2] is 61.3 % of control He Ab (=100).

B9: GpH7-B3 variant L328_07I/GpL16-k0 (Ho Ab) (antibody, human IgG1, kappa)
heavy: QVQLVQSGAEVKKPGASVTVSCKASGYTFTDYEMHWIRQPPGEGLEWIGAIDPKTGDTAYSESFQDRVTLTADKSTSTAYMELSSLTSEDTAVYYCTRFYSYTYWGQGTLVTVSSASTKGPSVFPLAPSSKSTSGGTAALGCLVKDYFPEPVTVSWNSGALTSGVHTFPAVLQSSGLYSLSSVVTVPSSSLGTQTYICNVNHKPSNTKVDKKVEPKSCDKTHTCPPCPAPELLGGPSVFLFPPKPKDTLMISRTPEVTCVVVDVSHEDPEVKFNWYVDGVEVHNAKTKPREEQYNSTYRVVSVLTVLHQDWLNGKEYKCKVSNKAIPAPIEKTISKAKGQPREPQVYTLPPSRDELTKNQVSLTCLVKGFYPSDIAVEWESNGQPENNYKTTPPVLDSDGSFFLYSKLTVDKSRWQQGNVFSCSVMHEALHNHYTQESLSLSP
light: B1 light
notes: Substitution in both H chains; position in EU numbering; also called L328I homodimerized antibody
As for B9, the Ho/Con_2b in assay [3] was 188 % of control.

B10: GpH7-A5/GpH7-B3 variant V266_20W/GpL16-k0 (antibody, human IgG1, kappa)
heavy 1: not shown
heavy 2: not shown
light: B1 light
notes: as for B1
With B10, in the assay with FcγRIIa H [1], the “He_2aH/2b (IIaH/IIb)” value was found to be 0.17 ratio. Further, the He/Con_2b in the assay with FcγRIIb is 71.9 % of control He Ab (=100). Further, the He/Con_2aH with FcγRIIa H [2] was 12 % of control He Ab (=100).

B11: GpH7-B3 variant L328_04F/GpL16-k0 (Ho Ab) (antibody, human IgG1, kappa)
heavy: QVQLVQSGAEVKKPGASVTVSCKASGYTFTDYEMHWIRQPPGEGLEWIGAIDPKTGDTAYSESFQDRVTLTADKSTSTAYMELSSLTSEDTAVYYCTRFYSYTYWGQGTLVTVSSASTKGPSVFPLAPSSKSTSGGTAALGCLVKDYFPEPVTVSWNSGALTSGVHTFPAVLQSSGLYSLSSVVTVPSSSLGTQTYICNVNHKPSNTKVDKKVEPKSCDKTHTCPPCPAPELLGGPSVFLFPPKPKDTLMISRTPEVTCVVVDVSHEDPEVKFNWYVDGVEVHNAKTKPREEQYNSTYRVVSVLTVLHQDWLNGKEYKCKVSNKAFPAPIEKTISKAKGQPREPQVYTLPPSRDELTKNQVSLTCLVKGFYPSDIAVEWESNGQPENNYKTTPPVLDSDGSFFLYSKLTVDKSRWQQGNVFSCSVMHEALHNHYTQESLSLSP
light: B1 light
notes: Substitution in both H chains; position in EU numbering; also called L328F homodimerized antibody
For B11, the Ho/Con_2b in assay [3] is 241 % of control.

B12: GpH7-A5/GpH7-B3 variant S267_04F/GpL16-k0 (antibody, human IgG1, kappa)
heavy 1: not shown
heavy 2: not shown
light: B1 light
notes: as for B1
Turning to B12, the “He_2aH/2b (IIaH/IIb)” value with FcγRIIa H [1] turned out to be 0.47 ratio. The He/Con_2b in the assay with FcγRIIb was 48 % of control He Ab (=100). In addition, the He/Con_2aH with FcγRIIa H [2] was 22.7 % of control He Ab (=100).

B13: GpH7-A5/GpH7-B3 variant S267_02A/GpL16-k0 (antibody, human IgG1, kappa)
heavy 1: not shown
heavy 2: not shown
light: B1 light
notes: as for B1
As to B13, the “He_2aH/2b (IIaH/IIb)” value in the assay with FcγRIIa H [1] is 0.49 ratio. Moreover, the He/Con_2b in the assay with FcγRIIb was 243 % of control He Ab (=100). Also, the He/Con_2aH in the assay with FcγRIIa H [2] is 120 % of control He Ab (=100).

B14: GpH7-B3 variant L328_06M/GpL16-k0 (Ho Ab) (antibody, human IgG1, kappa)
heavy: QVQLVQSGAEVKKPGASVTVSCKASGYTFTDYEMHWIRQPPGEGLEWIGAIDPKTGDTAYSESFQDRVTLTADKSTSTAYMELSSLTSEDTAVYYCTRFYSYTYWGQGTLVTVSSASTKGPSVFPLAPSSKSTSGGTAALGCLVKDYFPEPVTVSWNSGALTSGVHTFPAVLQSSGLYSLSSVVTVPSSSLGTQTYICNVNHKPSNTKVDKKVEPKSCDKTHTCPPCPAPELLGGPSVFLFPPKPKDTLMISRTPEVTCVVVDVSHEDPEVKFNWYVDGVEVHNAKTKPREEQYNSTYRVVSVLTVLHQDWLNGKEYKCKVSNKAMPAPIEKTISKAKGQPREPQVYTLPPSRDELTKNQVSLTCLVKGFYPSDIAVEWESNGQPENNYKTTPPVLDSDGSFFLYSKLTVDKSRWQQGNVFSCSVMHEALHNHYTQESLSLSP
light: B1 light
notes: Substitution in both H chains; position in EU numbering; also called L328M homodimerized antibody
For B14, the Ho/Con_2b in assay [3] is 171 % of control.

B15: GpH7-A5/GpH7-B3 variant K326_05P/GpL16-k0 (antibody, human IgG1, kappa)
heavy 1: not shown
heavy 2: not shown
light: B1 light
notes: as for B1
For the molecule B15, the “He_2aH/2b (IIaH/IIb)” value with FcγRIIa H [1] amounted to 0.79 ratio. Moreover, in the assay with FcγRIIb, the He/Con_2b is 126 % of control He Ab (=100). In addition, the He/Con_2aH with FcγRIIa H [2] is 98.8 % of control He Ab (=100).

B16: GpH7-A5/GpH7-B3 variant S267_14T/GpL16-k0 (antibody, human IgG1, kappa)
heavy 1: not shown
heavy 2: not shown
light: B1 light
notes: as for B1
As for B16, the “He_2aH/2b (IIaH/IIb)” value with FcγRIIa H [1] was found to be 0.61 ratio. Besides, the He/Con_2b with FcγRIIb was 104 % of control He Ab (=100). Also, the He/Con_2aH with FcγRIIa H [2] is 63.3 % of control He Ab (=100).

B17: GpH7-A5/GpH7-B3 variant P271_01G/GpL16-k0 (antibody, human IgG1, kappa)
heavy 1: not shown
heavy 2: not shown
light: B1 light
notes: as for B1
Regarding B17, the “He_2aH/2b (IIaH/IIb)” value with FcγRIIa H [1] came to 0.55 ratio. The He/Con_2b with FcγRIIb was 193 % of control He Ab (=100). Further, the He/Con_2aH in the assay with FcγRIIa H [2] was 107 % of control He Ab (=100).
